In paper PMC5306358:

Target: tissue factor (TF), endogenous on human cells (human (endogenous in HMVEC, HUVEC, HAEC, MDA-MB-231)) (UniProt P13726)
Chain of UniProt P13726 (P13726 33-295): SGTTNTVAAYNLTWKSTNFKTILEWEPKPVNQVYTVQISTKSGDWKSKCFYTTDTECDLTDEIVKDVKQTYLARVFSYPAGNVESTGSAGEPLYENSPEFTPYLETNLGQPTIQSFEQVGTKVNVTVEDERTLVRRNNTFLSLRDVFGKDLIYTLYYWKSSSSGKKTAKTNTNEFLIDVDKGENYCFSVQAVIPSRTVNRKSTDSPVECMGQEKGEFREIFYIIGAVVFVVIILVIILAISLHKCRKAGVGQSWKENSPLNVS

mfVII/NLS-SnCe6 conjugate (ligand) gave a clonogenic assay of angiogenic HMVEC after fVII-tPDT with fVII/NLS-SnCe6 (0.0, 0.5, 1 and 2 μM SnCe6, 635 nm laser light at 36 J/cm^2); EC50 of SnCe6 for killing of 31 nM.
